Source: patent EP4745156A1 (Beijing Vjtbio Co., Ltd., dated 2026)

Biological target: T1, His-tagged canine IL-31 (interleukin 31) recombinant protein (canine)
T1 construct: Expressed in HEK293 cells, purified on a Ni column; unlabelled analyte in BLI; also called canine IL-31 recombinant protein; biotin-labeled canine IL-31 recombinant protein
Experiment: BLI (Gator), biotinylated antibody on streptavidin probe, canine IL-31 as analyte

Kd: 19.3 nM | koff: 0.00203 s⁻¹ | kon: 105000 M⁻¹ s⁻¹
B1: Lokivetmab (antibody, V domains shown)
VH: EVQLVESGGDLVKPGGSLRLSCVASGFTFSNYGMSWVRQAPGKGLQWVATISYGGSYTYYPDNIKGRFTISRDNAKNTLYLQMNSLRAEDTAMYYCVRGYGYDTMDYWGQGTLVTVSS
VL: EIVMTQSPASLSLSQEEKVTITCKASQSVSFAGTGLMHWYQQKPGQAPKLLIYRASNLEAGVPSRFSGSGSGTDFSFTISSLEPEDVAVYYCQQSREYPWTFGQGTKLEIKR
